Assay results from the DeepSol protein solubility set.

Assay: soluble on expression in E. coli; label from the status in PepcDB or PDB records
In the case of “PKYTLHYFPLMGRAELCRFVLAAHGEEFTDRVVEMADWPNLKATMYSNAMPVLDIDGTKMSQSMCIARHLAREFGLDGKTSLEKYRVDEITETLQDIFNDVVKIKFAPEAAKEAVQQNYEKSCKRLAPFLEGLLVSNGGGDGFFVGNSMTLADLHCYVALEVPLKHTPELLKDCPKIVALRKRVAECPKIAAYLKKRPVRDF”, the “soluble on expression in E. coli” value is reported as “soluble”.
In the case of “MSLGETAWCRHPLAYLVEAADDICYALLDLEDGLEMGILRFDEVAEILIQIAGGAPEGYDGMRARGVSQRRRIATLRGAAMERAVNDVAAVFVAHESALLGGTLSEDLLELCHPDLGWGVGTAKRIARERIFQNERKAKLEIGAYTTLGILLEAFIGAAHELHYSGQSSFKHQRVLALIGENTPKSSWSLYASYRRMLDFIGGMTDHYAVDLAQEMGGRLEGHHHHHH”, the “soluble on expression in E. coli” value is reported as “not soluble”.
With “MKKIILIGSGGSGKSTLARQLGNKLNIKVHHLDALFWKPNWEGVPREEQITVQNNLIKDEKWIIDGNYGGTMGIRLNAADTIIFLDIHRTICVYRAFKRIVKYRNKTRPDMGAGCEERFDLQFFKWIWEYPNAKRPTILKELEQLPEEKKVIVLKSPNEVRKFLEHI” the “soluble on expression in E. coli” value was “soluble”.
In the case of “PPGPCLPPRLQGRPKAKEIQLRWGPPLVDGGSPISCYSVEMSPIEKDEPREVYQGSEVECTVSSLLPGKTYSFRLRAANKMGFGPFSEKCDITTAPG”, the “soluble on expression in E. coli” value is reported as “soluble”.
For “MLSRMRRKHFLSQTEHTFSRQEVSLWKEKQMICFMMNPSRKHIWASREEINMDHVVITIARQYGSGGRTVGKMLAERLGISFYDKQIIHMASDESGIDVNLFGKIEAGDKIKSSLFGNKSSIYKGDLVLPGNKDFISDENLFNYQAKVVNDLAEKESYVIVGRCVNYVFKDRPNTLRVFIHAPWEFRVEQASQKISGSREDVEKFLLKDDKRKQDYYRKFAGGQWSDATNYDLCLNSGKLGFDKCVDAIETQLKIMLGK”, the “soluble on expression in E. coli” value was “not soluble”.
For “MEHNQLIAMITEAVMEQIRPLPKINQIPVAISNRHVHLSQEDAQTLFGPNYSFKIKKDLSQPGQYACEERVTLVGPKGVIENVRILGPVRPQTQVELSVSDGIKLGITPPVRDSGDLANSAGITLVGPSGSLTLPEGVIAAARHIHMHSTDAARFGVKDRDRVSVTAPGPRGLVFRETLIRVSHNFTLEMHIDIDEANAAALRNQDYVELLLVNHLLP”, the “soluble on expression in E. coli” value was “not soluble”.
With “MTTLGTPVSLGRRTRTGRLELEFGVRHGQTALLRDLQKAPLMVVRPFRLPCGTLMVFIVNPTGGVLGGDHSEIHVEAGAGTRVLILTQSATRVQPSPGGEWATQELHFHVGVGARLEYYPERTLPFAGSRFRQHLRADLGAGAEFGLLETLASGRVQMGERLAWADYRSEVSVYAAQERVYLDRQHFRPGPHSRAPGVLGGNDYFASGVWVAGDSAAGRPAAESPTTAPGWASGLSAGGAVWARGVAATGPALDHAARQLREQVRHDLFGAAPLVLRRLEHHHHHH” the “soluble on expression in E. coli” value was “not soluble”.
In the case of “MTMLKNNLELLKKRYPEIYNEIKDIHVDSNAYQIIQNNEGQKTLKVTLDLYGENKSFFLHSKYHPDVEADRFAREQYKPEFSIQILYGFGLGYHVEKIAGLLKPDSMLYVIENNLMVFRSALENMDLCPILENRNVSLIVSKDVGYISEKVKELIDNNLDKVSFITHPASLKAIPEENEYFKFVMENWNLKKSITDDYDNTLRNNAKENLKLNSPNVGIFFDKFKDVPIIIVSTGPSLDKNIDLLKEAKGRALIISAGSALRPLLMRNIKPDFFAIIDPQDITYNQIKGYENIGIPFIYLVTAASYTVSRYLGPKLVAYYGKYNNSSEHLVDSGGSVATTILDIAIKMGGNPIILVGQDLAYVDGKNHAQYGSHASIYSPELKNMRRVKGQNGEMLYTSLGLLSYKYWIENRIQKEKRIFINATEGGAYIEGMKHIKLRDVISDYLKESFDFENKIKSILKESGIQHVQG”, the “soluble on expression in E. coli” value is reported as “soluble”.
In the case of “MKKHIKNLFLLAAICLTVACKEQLYTGLTEKEANQMQALLLSNDVNVSKEMDKSGNMTLSVEKEDFVRAITILNNNGFPKKKFADIEVIFPPSQLVASPSQENAKINYLKEQDIERLLSKIPGVIDCSVSLNVNNNESQPSSAAVLVISSPEVNLAPSVIQIKNLVKNSVDDLKLENISVVIKSSSGQDG”, the “soluble on expression in E. coli” value is reported as “not soluble”.
In the case of “MGSDKIHHHHHHMDRFLSIEAFVRVAEASSFAEAARQLGVTSSVVTNRIQQLEKFVNAPLFHRSTRHVRLSEVGETFYRECAEVVGRVNELTDQMRELRATPTGRLRIQMLPGFALDHFGVPLAEFNRRYPGIQLDIIVNDRVVDPVEEGFDIAFQIFPPISESLIERRLFVVRRLFCASPAYLDAHGAPQHPRELLQHTTALYSGYPSRNRWTMTRGDEVVEMELPGMIRSNSVHLLREYALTGGGVVCLPTLVASEALVAGRLVPILTDFEIAPLSFAAVYPATQRQALKVKALVEFLAEYIGDESPWDRPLLERGWVR”, the “soluble on expression in E. coli” value is reported as “not soluble”.
In the case of “MSVVSLVGQMYKREKPIPEWKTLMLRELEELFSKHRVVLFADLTGTPTFVVQRVRKKLWKKYPMMVAKKRIILRAMKAAGLELDDNLLDDLVRGQMLLVFADGNPFKIVKEVEKEKVAMPVKPGDKAETEIRIPEGMTNLTPGPILSVFGKLRIQYQVRGGKIYIAKETVVAKPGDVISEDLAGLLMALGIRPIEKGVRVKFAIDGGVLITEDLLRPDIEAFRGDVIDAAKEALGLATEIVYMPVPEAVESAIVKAALAASALAAETGFIAPGTVEDVVRKAIAEEAAVVALLGDKARELGIEEAAPAAAPAAEEKAEEEKKEEEEEKKEDQELSGLDSIFGGF”, the “soluble on expression in E. coli” value is reported as “soluble”.
With “GPGSMLDFLEQLQQLASVYAICGNAVSVMAGMSDTAEELTFRSYDSLEGASYICNLNEKALHTAKASLCDNADWSSFFREVQLAFNSGRVTVQPGNAHRVAVNAAAPVSADSKGLACSMEVHCLSGSGEKCATFVLERTTEDQQKYILESMLQAHHMYNHPKEYEQKLLHIMEAKEIACTKREALDRELVALNDNLTRNKHKQKINNERKEELLKKLGGYSTENTGNPWQAIQEQQQRTAGENTKSRLPSPLGNRTCKDFDLVLFRMIKSRWLSPEQCDASSPANRVVQPYSKEDLAIQVSQLSGSRAAIWKALDSIDSWSYRVFDVQAAMSGDDYLSLSTQTHGGSLLITMYALLCMHDFLQKFKIDEQIALNWISAVEASYHGNPYHNSMHAADVLQITDFIITQGGLAKRCDLSDIQVFSALLAASIHDFDHPGINNNFHIKTGSYLATLYNDRSVLENLHVSSVFELMKNPAFNILASFSDEQHHEVRETMIEMVLATDMGSHGKYVASLKGKMQEHSSFTQTAEQNLCLAIALKMADISNCGRPLDIYLRWGAKVSDEFYQQGDRERNLGLECSPFMDRLQPSLAKSQIAFMNYIITPFFEQVAELLPDMRFAVALVEENKAYWANHDDS” the “soluble on expression in E. coli” value was “soluble”.
For “MRILVSCANGSGTSLMMMRSVEKAMKELGVPITKIHHCAISEGKSSASQYDVVFTPVNFLQMFQQAEKRGVTVIGIKNVMSAKEIQEKYMASDRYQKSE”, the “soluble on expression in E. coli” value was “not soluble”.
With “MGSDKIHHHHHHMKKQPSATVNQEKESELIEGLMSNDDLAYETLVRQYSAKMYAVARRFFCTNDDAQECLQKAFIQVFKNITSFKQNSNLSTWLHRITVNEALMMLRQRKRQNTTSLEEFAQHYNEYGERTVFADNLGNNLNNNLGTILGGNVETLFEKTETKLSLNDIIFQLPEKYCNVLLLRDIQEISTKETAEILAISESLVKTQLHRARLLLKAILEQDDKDNLESNWKVNSHVND” the “soluble on expression in E. coli” value was “not soluble”.
With “GMTTENTTALLLIDFQNDYFSTYNGAKNPLVGTEAAAEQGAKLLAKFRQQGLPVVHVRHEFPTDEAPFFLPGSDGAKIHPSVAAQEGEAVVLKHQINSFRDTDLKKVLDDAGIKKLVIVGAMTHMCIDAVTRAAEDLGYECAVAHDACATLDLEFNGITVPAAQVHAAFMSALSFAYANVASADELIAGL” the “soluble on expression in E. coli” value was “soluble”.
For “MQSNKAFNLEKQNHTPRKHHQHHHQQHHQQQQQQQQQQPPPPIPANGQQASSQNEGLTIDLKNFRKPGEKTFTQRSRLFVGNLPPDITEEEMRKLFEKYGKAGEVFIHKDKGFGFIRLETRTLAEIAKVELDNMPLRGKQLRVRFACHSASLTVRNLPQYVSNELLEEAFSVFGQVERAVVIVDDRGRPSGKGIVEFSGKPAARKALDRCSEGSFLLTTFPRPVTVEPMDQLDDEEGLPEKLVIKNQQFHKEREQPPRFAQPGSFEYEYAMRWKALIEMEKQQQDQVDRNIKEAREKLEMEMEAARHEHQVMLMRQDLMRRQEELRRMEELHNQEVQKRKQLELRQEEERRRREEEMRRQQEEMMRRQQEGFKGTFPDAREQEIRMGQMAMGGAMGINNRGAMPPAPVPPGTPAPPGPATMMPDGTLGLTPPTTERFGQAATMEGIGAIGGTPPAFNRPAPGAEFAPNKRRRY”, the “soluble on expression in E. coli” value was “soluble”.
For “MLVRLGYVAMSVHLKNASPSQTMTYAQFQKLDDRDAAIRKLERIANSNLENCLRLLKHNKGHDISFFRLSSKLIPLANHEELLEWNYIRPLKENLKKLGEYAVHMNMRIDFHPDHFVVLNSPEESVFKQSVKTLQMHKKLLKGMGIEHKQRCVLHVGGGYKDKELALERFIENWSNVPRGIQEMIILENDDTTFTLEETLYLGEKLDIPVVFDLHHHMMNNEQEDWYEDWARVVHTWETSLLPIKMHISSPREGKDPRAHADYINVDAFLSFLRRIKGSVPQIDCMIEAKMKDESLFQLMRDLSEQVDVEIIDGASFYIK”, the “soluble on expression in E. coli” value was “not soluble”.
In the case of “MGSDKIHHHHHHMRATLKIAEPPVVSPSEDELRELENLYCSHGDTVHYTDKPKFFEGCEGSFVYDASQTPFLDLQMWYSAVNFGYRNERLNNAAHRQLDQLPQVASQYLHREKVELAALIARDAEQKFGHKGRVHFNVGGSQAVEDSLKLVRNFTGGKSLMFAFEGGYHGRTLGASAITSSYRYRRRYGHFSDRAQFIEFPYHFRGPKGMSKEEYGEVCVQKFARLFESEYNGVWDPKAGKSEYAAFYVEPIQGTGGYVIPPMNFFTGLKKVLDDHGILLVVDEIQMGVYRTGKLWSIEHFGVSPDVLVFGKAITNGLNPLSGIWAREEMINPTIFPPGSTHSTFASNPMGTAVALETMKMVGEGDFGASVMEKGARFLDGLKVLEKRHAIVGDVDGLGLALRMEICKEDGFTPDKATLDWMSDEGMKGDMVVDGKTYGLVLDVGGYHKNVITLAPNLMISNSEIDLALTLLDQLLTRAARR”, the “soluble on expression in E. coli” value is reported as “not soluble”.
For “SLAGPKESRDLTLEQFQVNFLDQYTIKHAFINGVNIYRCYPGAPPNNVQMVMQRSHGTEVPGIMVNLEGQQPTVVPLDASIIGAKKLTPTTTRPLHNVRVLRVNAVMRFHPLCRARFVGPNDISFGIRSATSQSIQEHIQELTDLMKKTQQADEQAMGALYSRSSALVSKLKMSGATSNVAFLEVPQTETRWGNPWTWYRAYLPTPLGDGVETWMTPIGDSGYYITVDFNFTESERQKNTENYQRARQLMDSVLQSVVIQKR”, the “soluble on expression in E. coli” value was “soluble”.
In the case of “ELPDFFQGKHFFLYGEFPGDERRKLIRYVTAFNGELEDYMSDRVQFVITAQEWDPSFEEALMDNPSLAFVRPRWIYSCNEKQKLLPHQLYGVVPQA”, the “soluble on expression in E. coli” value is reported as “soluble”.
With “MSRLSEPSPYVEFDRRQWRALRMSTPLALTEEELVGLRGLGEQIDLLEVEEVYLPLARLIHLQVAARQRLFAATAEFLGEPQQNPDRPVPFIIGVAGSVAVGKSTTARVLQALLARWDHHPRVDLVTTDGFLYPNAELQRRNLMHRKGFPESYNRRALMRFVTSVKSGSDYACAPVYSHLHYDIIPGAEQVVRHPDILILEGLNVLQTGPTLMVSDLFDFSLYVDARIEDIEQWYVSRFLAMRTTAFADPESHFHHYAAFSDSQAVVAAREIWRTINRPNLVENILPTRPRATLVLRKDADHSINRLRLRKL” the “soluble on expression in E. coli” value was “soluble”.
